Assay results published in the supplement of paper PMC9170038.

Test system: MS2 coat protein
Assay: apparent KD of MS2 coat protein; designed switch direction (-1 OFF switch, 1 ON switch): -1; higher = weaker reporter binding
Outline: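 For each design, the apparent KD is the median over clusters of curves fitted to normalised cluster fluorescence. Clusters held RNA switches with common flanks, transcribed on Illumina chips by stalled E. coli RNA polymerase. These were titrated with SNAP-549-labelled MS2 coat protein, doubling from 0.7 or 1.5 nM to 3 µM, without input, with 200 uM small-molecule ligand, or with an oligonucleotide input.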

[1] = input ligand: microRNA oligo, concentration not stated

Sequence	apparent KD of MS2 coat protein (input ligand: FMN 200 uM) [nM]	apparent KD of MS2 coat protein [1] [nM]	apparent KD of MS2 coat protein (input ligand: none) [nM]
ACAUGAGGAUCACCCAUGUGACCACGAUGGCUGAUGUAGACCUAGGAUAUGUGUGAAUAUCUAUCACAGAAGGAGGUUGACUGG [Deportation 51 - Jieux - Exclusion NG 3] (Eterna round: R96, puzzle: Exclusion NG 3)	44.4	34.3	42.7
ACAUGAGGAUCACCCAUGUGACCACGAUGGCUGAUGUAGAGAUAGGAUAUGUGUGAAUAUCUAUCACAGAAGGAUCUUGACUGG [Deportation 53 - Jieux - Exclusion NG 3] (Eterna round: R96, puzzle: Exclusion NG 3)	25.2	22.4	28.5
ACAUGAGGAUCACCCAUGUGCACGUAAUGGCUCAUGUAGAGUGAGGAUAUGUGUGACGAACGAGCACAGAAGGCACAAGACUGG [Deportation 13 - Jieux - Exclusion NG 3] (Eterna round: R96, puzzle: Exclusion NG 3)	116	67.3	97.4
ACAUGAGGAUCACCCAUGUGCCCAUCUAGCACAUGUCCUCGCUAGGAUAUGUAGGCCUCGACGCCGCAGAAGGAGCUAAAAGAG [Raatlaan] (Eterna round: R96, puzzle: Exclusion NG 3)	129	44.6	64.5
ACAUGAGGAUCACCCAUGUGCCCAUCUAGCACAUGUCCUCGCUAGGAUAUGUAGGCCUCGAGGCCGCAGAAGGAGCUAAAAGAG [Atgequa] (Eterna round: R96, puzzle: Exclusion NG 3)	453	82.8	127
ACAUGAGGAUCACCCAUGUGGACGAAAAGGCUCAUGUAGAGUGAGGAUAUGUGAGACGAACGAGAACAGAAGGCACAAGACAGG [Deportation 5 - Jieux - Exclusion NG 3] (Eterna round: R96, puzzle: Exclusion NG 3)	17.4	22.3	20
ACAUGAGGAUCACCCAUGUUAACGAAAAGGCUCAUGUAGAGUGAGGAUAUGUGAGACGAACGAGAACAGAAGGCACAAGACAGG [Deportation 2 - Jieux - Exclusion NG 3] (Eterna round: R96, puzzle: Exclusion NG 3)	24.2	15.2	22.3
ACAUGAGGAUCACCCAUGUUUGGCUGGUUUUCUCCGGCUGUCGAGGAUAUAGUCCGGUAUCCGCGCUAGAAGGUGAGGGUUGGC [Aenatbe mod 4] (Eterna round: R96, puzzle: Exclusion NG 3)	22.5	14.2	22.8
ACAUGAGGAUCACCCAUGUUUGUUGGGUACUCUUUUUACAGCAAGGAUAUGCAUGUUUUUUUUACGCAGAAGGUGCUGGACGUC [JR_ExcNG3_Sub068] (Eterna round: R96, puzzle: Exclusion NG 3)	381	163	653
ACAUGAGGAUCACCCAUGUUUUUCGGGUACUCUUGAUACAGCAAGGAUAUGCAUUAUUUAUGUACGCAGAAGGUGCAUUACGUC [JR_ExcNG3_Sub064] (Eterna round: R96, puzzle: Exclusion NG 3)	104	67	71.9
ACAUGAGGAUCACCCAUGUUUUUCGGGUACUCUUUUUACAGCAAGGAUAUGCAUUAUUUUUUUACGCAGAAGGUGCUUUACGUC [JR_ExcNG3_Sub066] (Eterna round: R96, puzzle: Exclusion NG 3)		116	
